From the supplement of paper PMC10724198
± gives the standard deviation of the averaged measurements.

These sequences were tested on Saccharomyces cerevisiae (assay: protein stability index of tFT-peptide fusion (C-terminal peptide) (PSI (0-1 scale)); higher = more stable (slower turnover)). Settings: genetic background: wild type; temperature: 30 C.
Experimental: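 Multiplexed protein stability (MPS) profiling in S. cerevisiae. Random 12-aa peptides (tFT-X12 library) are fused to the C-terminus of a sfGFP-mCherry tandem fluorescent timer, after mCherry and a GGGS linker. Cells are FACS-sorted into 8 mCherry/sfGFP bins and deep-sequenced. The protein stability index (PSI) is the read-weighted bin average, scaled from 0 (unstable) to 1 (stable). Only peptides with >10 reads are reported; cells were grown at 30 °C in SC-His with glucose.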
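Also: PSI is a weighted mean of sequencing reads over stability bins, variants kept only with over 10 reads, mCherry proximal and sfGFP distal, peptide attached via GGGS linker.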

In order of falling protein stability index:
1. FPVLFSCGYFPL  0.792 ± 0.04
2. FNTRDTFLYTCR  0.789 ± 0.11
3. FSLHTSLLPSVP  0.787 ± 0.14
4. FRDVRFSSRVPF  0.786 ± 0.07
5. FSVLSPHPLHPL  0.753 ± 0.093
6. FLSEFFMPSPFP  0.745 ± 0.097
7. GADGGLVSLGVS  0.743 ± 0.026
8. GAPTYTGEPRTP  0.742 ± 0.032
9. FPPPPPPLTVLP  0.728 ± 0.054
10. GAARGWLPGAGW  0.727 ± 0.04
11. FWIRGVTRCVWC  0.724 ± 0.053
12. FVGACCGGSVEG  0.721 ± 0.036
13. GAKQSSKRPRAS  0.719 ± 0.028
14. FSAFWLACFFGV  0.717 ± 0.062
15. FPLSLCPHRPSL  0.716 ± 0.034
16. FSFNGMTRNCLR  0.715 ± 0.014
17. FRRWHPPFFLFP  0.713 ± 0.04
18. FLLPLKCRSTTN  0.712 ± 0.046
19. FSTTSFPPSFFP  0.711 ± 0.042
20. GAECVSGWGGET  0.709 ± 0.035
21. FLPPSRFSPLRL  0.708 ± 0.11
22. FLLPPASLSLPP  0.7074 ± 0.0034
23. FVEIRGGGDRRM  0.706 ± 0.013
24. FPPPLPPRLPPP  0.702 ± 0.0061
25. FSGSSFNGLCSF  0.701 ± 0.018
26. GAGASEGEPMED  0.7 ± 0.046
27. FPGVGARAGVGV  0.697 ± 0.027
28. GALFRRACSLLF  0.697 ± 0.039
29. FRASLPRVPFSS  0.695 ± 0.11
30. FLLLSAGERCWD  0.694 ± 0.085
31. FQGKRTKQEGVK  0.692 ± 0.071
32. FPHPPPGPRALH  0.691 ± 0.16
33. FPPPPTHPASSP  0.691 ± 0.027
34. FYRTRQSASPNV  0.688 ± 0.046
35. GALSDSLRVYTP  0.688 ± 0.041
36. GASLFSEVMARE  0.688 ± 0.027
37. FTPSSLRGSLLA  0.687 ± 0.021
38. FWPPLTNLCTLL  0.687 ± 0.011
39. GAGCRDSSRRRT  0.687 ± 0.037
40. FSLPPAASDFPS  0.685 ± 0.015
41. FVGFVFSSAVGL  0.684 ± 0.011
42. GAHRRDTYTVIG  0.682 ± 0.011
43. FPRHPPPFPRPT  0.681 ± 0.031
44. GASPTNSPLIYT  0.679 ± 0.0077
45. FSLPSVPCATYR  0.678 ± 0.043
46. GAGRYVLNPCCS  0.678 ± 0.034
47. FVHEHQPRHEST  0.677 ± 0.028
48. GALGGDSGKGGG  0.677 ± 0.15
49. FRGATRPHSGRS  0.676 ± 0.048
50. FLSFIALLPFTS  0.6748 ± 0.0021
51. GASGRKPGCDRL  0.67 ± 0.062
52. FTGACRCLDGPR  0.669 ± 0.055
53. FSSRLVFFFAAP  0.667 ± 0.036
54. FWVESGVFFFRP  0.667 ± 0.017
55. FNIRDKVKRGAL  0.666 ± 0.008
56. GAKGRGKERRGK  0.666 ± 0.051
57. FPYLLCPLFPWP  0.665 ± 0.015
58. FPCAPFLLLDVS  0.663 ± 0.0029
59. FVIPLLRWGRTP  0.663 ± 0.053
60. FSSSMFPPPLFV  0.662 ± 0.0056
61. FNEKNKKSTLER  0.652 ± 0.043
62. GALEMNVCVPWL  0.65 ± 0.017
63. FNCCSYTSPASG  0.649 ± 0.015
64. GAGVCEQGLALA  0.649 ± 0.091
65. FVFPFHSRGVSQ  0.647 ± 0.015
66. FMACGVNIELRV  0.643 ± 0.0088
67. FPWISPCCFTFP  0.64 ± 0.042
68. FSEKLLRSSVYR  0.639 ± 0.19
69. GAGGAGAGAGGG  0.639 ± 0.0092
70. FRRARRLRWFGG  0.637 ± 0.03
71. FPDPTPNLRPPP  0.636 ± 0.034
72. FRMLSRMKEILD  0.634 ± 0.052
73. GAIVLMSCRNVI  0.634 ± 0.04
74. FRIFGFLVCPIM  0.6257 ± 0.0038
75. FLPFRPFPPFSA  0.621 ± 0.0064
76. FSVVGVFNIYGM  0.6214 ± 0.0023
77. GAPLFTYVIVRR  0.621 ± 0.07
78. FPMHFRVRCRPV  0.62 ± 0.045
79. FRLLLLKIKSEQ  0.619 ± 0.034
80. FTLLLFVPSLGS  0.618 ± 0.0082
81. FRYRLACRPIYQ  0.616 ± 0.038
82. FSGGCSVHGLIS  0.612 ± 0.071
83. FTQDYRRKTMSH  0.604 ± 0.064
84. FSVPRFVSISGI  0.6 ± 0.034
85. GAPWPLAVVAGP  0.5995 ± 0.0013
86. GAFLPLTCDIIC  0.598 ± 0.013
87. FRLLFSFFWGYV  0.595 ± 0.033
88. FPALPPPLPQPP  0.585 ± 0.031
89. FVVRGVFVSGFW  0.582 ± 0.019
90. FVRWGWAVMLGG  0.571 ± 0.013
91. FPFFLPMASLFC  0.559 ± 0.018
92. FRRLVTGVLSIF  0.559 ± 0.028
93. FVPSSVFLFCLG  0.545 ± 0.023
94. FTYFLPPPALCS  0.521 ± 0.02
95. GAFFPGPVLFLT  0.517 ± 0.013
96. FPGLFLFVLLPG  0.505 ± 0.013
97. FPFWRLYNLELL  0.492 ± 0.022
98. FRWLLVAGGWGE  0.486 ± 0.024
